Experiments:
[1] = target: monoclonal mouse IgG1 anti human CRP antibody B08; assay: swCNT-FET displacement of peptide 80715-Au nanoparticle complex from immobilised B08; CRP 100 nM in PBS
[2] = target: monoclonal mouse IgG1 anti human CRP antibody B08; assay: swCNT-FET displacement of peptide 80715-Au nanoparticle complex from immobilised B08; CRP 1.56 nM in PBS
[3] = target: monoclonal mouse IgG1 anti human CRP antibody B08; assay: swCNT-FET displacement of peptide 80715-Au nanoparticle complex from immobilised B08; CRP 381 fM in PBS
[4] = target: monoclonal mouse IgG1 anti human CRP antibody B08; assay: swCNT-FET displacement of peptide 80715-Au nanoparticle complex from immobilised B08; CRP 195 pM in PBS
[5] = target: monoclonal mouse IgG1 anti human CRP antibody B08; assay: swCNT-FET displacement of peptide 80715-Au nanoparticle complex from immobilised B08; CRP 3 pM in PBS
[6] = target: monoclonal mouse IgG1 anti human CRP antibody B08; assay: swCNT-FET displacement of peptide 80715-Au nanoparticle complex from immobilised B08; CRP 800 nM in PBS
[7] = target: monoclonal mouse IgG1 anti human CRP antibody B08; assay: swCNT-FET displacement of peptide 80715-Au nanoparticle complex from immobilised B08; CRP 24 pM in PBS
[8] = target: monoclonal mouse IgG1 anti human CRP antibody B08; assay: swCNT-FET displacement of peptide 80715-Au nanoparticle complex from immobilised B08; CRP 12.5 nM in PBS

ΔV (V) [1]: -0.024 V
ΔV (V) [2]: -0.02 V
ΔV (V) [3]: -0.009 V
ΔV (V) [4]: -0.017 V
ΔV (V) [5]: -0.013 V
ΔV (V) [6]: -0.027 V
ΔV (V) [7]: -0.016 V
ΔV (V) [8]: -0.022 V
B1: biomarker C-reactive protein (CRP) (protein, human, UniProt P02741 19-224, looked up)
chain: QTDMSRKAFVFPKESDTSYVSLKAPLTKPLKAFTVCLHFYTELSSTRGYSIFSYATKRQDNEILIFWSKDIGYSFTVGGSEILFEVPEVTVAPVHICTSWESASGIVEFWVDGKPRVRKSLKKGYTVGAEASIILGQEQDSFGGNFEGSQSLVGDIGNVNMWDFVLSPDEINTIYLGGPFSPNVLNWRALKYEVQGEVFTKPQLWP

Source: patent US20220252583A1
